Data set [1] addresses T1, hFcRn (extracellular domain of the FcRN) (Homo sapiens, UniProt P55899).
T1 construct: made in house
As to the kind of experiment: FcRn binding by surface plasmon resonance (Biacore). The text has this:
Binding to the Fc neonatal receptor (FcRN) allows for recycling of the molecules and leads to an extended in vivo serum half-life of the Fc fusion proteins. Recycling occurs as the molecules are passively taken into the cells and the pH of the endosomes is lower. That leads to binding of the Fc portion of the molecule to the FcRN. When the FcRN recycles back to the surface of the cell, the pH is then neutral and the protein is released back into the serum.
Binding to the extracellular domain of the FcRN was measured by surface plasmon resonance (SPR) using a Biacore system. Direct immobilization with FcRn was achieved via amine coupling of a CM5 chip with FcRn under the following conditions: • i) hFcRn (expressed and purified in house) is diluted in Acetate buffer pH 5.0 to 5 μg/mL. • ii) Immobilize 5 μg/mL of FcRn with target of 500 RU on CM5 chip in PBS pH 7.0 • iii) Final response 454 RU • iv) Running buffer: PBS-P+, pHed to 5.5
The kinetic binding study was done using the following protocol. Samples were diluted in PBS-P+ to 50, 25, 12.5, 6.25, 3.125, 1.56, 0.78, 0.39, 0 nM. The parameters were set as follows: • i) Association and Dissociation 300 s at Flow rate 30 μL/min • ii) Regeneration with 25 mM Tris, 150 mM NaCl pH 8.0 40 s at 60 μL/min
A measurement of the binding of the GLP-2 peptibodies to the Fc neonatal receptor (FcRN) was undertaken at pH 5.5 and pH 7.4.
Background: In SPR one partner is held on a chip, and binding of the other changes the refractive index at the surface.

A short description of data set [2]: NanoDSF melting temperature / thermal stability. Format: physicochemical. The protocol:
Each of the GLP-2 peptibodies was tested by determining melting temperature with nanodifferential scanning fluorimetry (NanoDSF). NanoDSF is a measurement of protein stability over a range of temperatures, with a temperature ramp employed. The stability of tryptophan is measured by fluorescence, as reflected in a ratio of fluorescence at 350 nm to fluorescence at 330 nm. From the assay, one or more melting temperatures are determined. Because a protein in a certain state is understood to have a melting temperature, the number of melting temperatures observed reflects the number of different states.
(§1) Stability analysis was then performed using SEC-MALS and NanoDSF. For SEC-MALS, a Sepax Zenix C-150 column was used. The mobile phase buffer was 1× PBS with a final concentration of 400 mM NaCl. The flow rate was 0.8 mL per minute. 20 micrograms of total protein was injected. For NanoDSF, 10 microliters of sample was used, without normalization of the samples.
as §1
(Differential scanning fluorimetry follows unfolding on heating by fluorescence.)

Data set [3] in a line: Rat pharmacokinetics, intravenous dosing. The format is in vivo, Sprague-Dawley rats. The note with it: single dose 1 mg/ml. The protocol:
(§2) In the rat, four pharmacokinetic parameters were measured for Gattex® (a GLP-2 peptide having the A2G mutation): CL, Vc, Vt and Q. The same pharmacokinetic parameters were also measured for GLP-2 peptibodies A, B, E, J, K, L, M, O and P. The data is shown in Table 4. Male Sprague-Dawley rats (3 animals per group) were injected intravenously either via a jugular vein or tail vein catheter. A singles dose of test article was injected at a dose level of 1 mg/ml. The test articles were formulated in PBS pH 7.4 at a concentration of Blood samples were taken 0.083, 0.167, 0.33, 0.5, 1, 2, 6, 24, 48, 72, 120, 168, 240, and 336 hours post dose. Blood samples were collected into heparinized tubes and centrifuged for 5 minutes at 2000 xg within 10 minutes of collection. 100 μL of plasma were transferred to a 1.5 ml Eppendorf tube containing 2 μL of 50 mM PMSF. After mixing, the plasma samples were frozen at −80° C. until analysis.

A short description of data set [4]: Rat pharmacokinetics, subcutaneous dosing. The format is in vivo, Sprague-Dawley rats. The note with it: single dose 1 mg/ml. The protocol: as §2, with “5.” for “4.”, “subcutaneously into the intra-scapular region of the animal.” for “intravenously either via a jugular vein or tail vein catheter.”, “[…]” for “1.5”, “mixing” for “mixing,”, “analysis. Meso Scale Discovery (MSD) ELISA was undertaken to assay for the concentration of the GLP-2 peptibodies.” for “analysis.”
A sandwich immunoassay was developed using either an anti-Human IgG1 Fc antibody or an anti-human albumin antibody for capture of the peptibody and a sulfotag labeled anti GLP-2 antibody for detection.

Data set [5] is described as follows: Projection of intravenous and subcutaneous PK parameters for humans. Also on record: species or system human. Here is the method: While a dose of 30 μg/kg once weekly (QW) is projected from the cynomolgus monkey PK data, the dose should be ten times higher (300 μg/kg) to adjust for the difference in in vivo potency.

T1 sequence (P55899 24-297 limits assumed): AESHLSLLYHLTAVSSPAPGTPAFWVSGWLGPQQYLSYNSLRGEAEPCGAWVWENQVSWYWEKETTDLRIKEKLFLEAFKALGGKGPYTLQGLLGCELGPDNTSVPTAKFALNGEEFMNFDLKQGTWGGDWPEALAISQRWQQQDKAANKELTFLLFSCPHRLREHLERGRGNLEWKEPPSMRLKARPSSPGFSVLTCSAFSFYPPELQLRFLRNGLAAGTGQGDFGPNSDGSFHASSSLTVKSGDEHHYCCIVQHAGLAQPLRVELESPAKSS
T1 sequence (P61769 21-119 partner): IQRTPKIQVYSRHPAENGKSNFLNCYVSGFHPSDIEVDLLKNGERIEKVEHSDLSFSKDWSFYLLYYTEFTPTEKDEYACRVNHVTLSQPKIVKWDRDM

In general, Kd refers to the constant that tells how readily two partners part at equilibrium. Consider “GLP-2 peptibody K: GLP-2[A2G]-GGGGSGGGGSGGGGS linker-IgG1 Fc (LALA) with C-terminal lysine; SEQ ID NO: 10”, for which binding in data set [1] (pH 5.5) was put at a Kd of 1.95 nM. Besides, the “FcRN KD at pH 7.4” value in data set [1] (pH 7.4) is “No binding in range tested”. Also, the “NanoDSF melting temperature 1” value in data set [2] (first transition) is 1 = 67.5 °C. Further, the “NanoDSF melting temperature 2” value in data set [2] (second transition) was 2 = 79.7 °C. Moreover, in data set [3], the CL was determined as 53.7 mL/day/kg, the Q worked out at 61 mL/day/kg, the Vc is 42.2 mL/kg and the Vt came out at 46.4 mL/kg. Further, in data set [4], the CL is recorded as 68 mL/day/kg, the Vc was 114 mL/kg and the ka result is “K (0.62 ka/day,”. In data set [5], this substance registered a Vc of 38.5 mL/kg, a Vt of 36.1 mL/kg and a ka of 1.40 day⁻¹. In addition, in data set [5] (exponent on CL 0.85, monkey 3.5 kg, human 70 kg), the “CL (value in parentheses)” value stood at 15.4 mL/day/kg. In data set [5] (first value of cell), this substance had a CL of 24.2 mL/day/kg, an F of 86% and a Q of 56.4 mL/day/kg. Besides, in data set [5] (value in parentheses), the “F (value in parentheses)” value is 60% and the “Q (value in parentheses)” value came out at 36.0 mL/day/kg.
